# Source: PMC5426458, “A practical strategy to design and develop an isoform-specific fluorescent probe for a target enzyme: CYP1A1 as a case study” (Chemical Science, 2016)
# T1: CYP1A1 (Homo sapiens, UniProt P04798)
# T1 construct: endogenous CYP1A1 in human tissue microsomes, A549 and SKOV3 cells
# T1 sequence (P04798 1-512): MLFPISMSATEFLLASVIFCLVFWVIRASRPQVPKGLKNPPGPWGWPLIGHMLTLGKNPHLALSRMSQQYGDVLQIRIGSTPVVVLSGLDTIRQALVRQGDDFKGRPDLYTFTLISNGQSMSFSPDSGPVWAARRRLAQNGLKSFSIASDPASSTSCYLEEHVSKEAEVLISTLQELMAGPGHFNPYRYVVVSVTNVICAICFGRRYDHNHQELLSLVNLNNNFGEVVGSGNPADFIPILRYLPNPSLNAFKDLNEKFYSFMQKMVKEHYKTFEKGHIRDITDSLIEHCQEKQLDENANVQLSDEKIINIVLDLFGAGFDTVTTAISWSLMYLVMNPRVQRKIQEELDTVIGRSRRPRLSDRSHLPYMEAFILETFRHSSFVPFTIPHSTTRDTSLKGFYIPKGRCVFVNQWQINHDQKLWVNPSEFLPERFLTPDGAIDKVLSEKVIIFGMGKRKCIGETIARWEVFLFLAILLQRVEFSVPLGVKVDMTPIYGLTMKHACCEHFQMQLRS
# Legend:
# [1] = target: T1, CYP1A1; experiment: inhibition of NBCeN-O-dechloroethylation in human tissue preparations and living cells ([…] in cells); format: cell-based
# [2] = substrate: CCCCN1C(=O)c2cccc3c(OCCCl)ccc(c23)C1=O; experiment: purified protein; format: biochemical, Homo sapiens; details: heme
molecule,measurement,setting,value
Oc1ccc(/C=C/c2cc(O)cc(O)c2)cc1 [resveratrol],inhibition of NBCeN-O-dechloroethylation in human tissue preparations and living,[1],formation of NBHN could be potently inhibited by ABT (a broad CYP inhibitor) and resveratrol (a selective inhibitor of CYP1A1)
"CYP1A2 (Homo sapiens) (protein, recombinant CYP1A2) ALSQSVPFSATELLLASAIFCLVFWVLKGLRPRVPKGLKSPPEPWGWPLLGHVLTLGKNPHLALSRMSQRYGDVLQIRIGSTPVLVLSRLDTIRQALVRQGDDFKGRPDLYTSTLITDGQSLTFSTDSGPVWAARRRLAQNALNTFSIASDPASSSSCYLEEHVSKEAKALISRLQELMAGPGHFDPYNQVVVSVANVIGAMCFGQHFPESSDEMLSLVKNTHEFVETASSGNPLDFFPILRYLPNPALQRFKAFNQRFLWFLQKTVQEHYQDFDKNSVRDITGALFKHSKKGPRASGNLIPQEKIVNLVNDIFGAGFDTVTTAISWSLMYLVTKPEIQRKIQKELDTVIGRERRPRLSDRPQLPYLEAFILETFRHSSFLPFTIPHSTTRDTTLNGFYIPKKCCVFVNQWQVNHDPELWEDPSEFRPERFLTADGTAINKPLSEKMMLFGMGKRRCIGEVLAKWEIFLFLAILLQQLEFSVPPGVKVDLTPIYGLTMKHARCEHVQARLRFSIN",Km,[2]; NADPH,0.81 µM
"CYP1A1 (Homo sapiens) (protein, recombinant CYP1A1) MLFPISMSATEFLLASVIFCLVFWVIRASRPQVPKGLKNPPGPWGWPLIGHMLTLGKNPHLALSRMSQQYGDVLQIRIGSTPVVVLSGLDTIRQALVRQGDDFKGRPDLYTFTLISNGQSMSFSPDSGPVWAARRRLAQNGLKSFSIASDPASSTSCYLEEHVSKEAEVLISTLQELMAGPGHFNPYRYVVVSVTNVICAICFGRRYDHNHQELLSLVNLNNNFGEVVGSGNPADFIPILRYLPNPSLNAFKDLNEKFYSFMQKMVKEHYKTFEKGHIRDITDSLIEHCQEKQLDENANVQLSDEKIINIVLDLFGAGFDTVTTAISWSLMYLVMNPRVQRKIQEELDTVIGRSRRPRLSDRSHLPYMEAFILETFRHSSFVPFTIPHSTTRDTSLKGFYIPKGRCVFVNQWQINHDQKLWVNPSEFLPERFLTPDGAIDKVLSEKVIIFGMGKRKCIGETIARWEVFLFLAILLQRVEFSVPLGVKVDMTPIYGLTMKHACCEHFQMQLRS",Km,"[2]; NADPH active site, O-chloroethyl group cleaved, docking suggests pi-pi stacking with Phe-224",0.84 µM
